B1: TSLPR-012_189, CDR grafted (antibody, V domains shown)
VH: QVQLVESGGGLVKPGGSLRLSCAASGFSITTSGYYWTWIRQFPGKGLEWMGYIGYNSKTYYNPALKSRITISRDNAKNSLYLQMNSLRAEDTAVYYCARSLYGGYKDAFDSWGQGTLVTVSS
VL: EIVMTQSPATLSVSPGERATLSCRASQSIGTSLHWYQQKPGQAPRLLIKFASRSITGIPARFSGSGSGTEFTLTISSLQSEDFAVYYCQQSPGFPPTFGQGTKLEIKR
notes: Humanized (CDR grafted) variant of hamster TSLPR-012; human kappa and human IgG1 or IgG4(S228P,L235E) appear only as embodiments
B2: TSLPR-012_75, CDR grafted (antibody, V domains shown)
VH: B1 VH
VL: EIVLTQSPDFQSVTPKEKVTITCRASQSIGTSLHWYQQKPDQSPKLLIKFASRSISGVPSRFSGSGSGTDFTLTINSLEAEDAATYYCQQSPGFPPTFGQGTKLEIKR
notes: as for B1
B3: TSLPR-012_141, CDR grafted (antibody, V domains shown)
VH: B1 VH
VL: DIQMTQSPSSLSASVGDRVTITCRASQSIGTSLHWYQQKPGKAPKLLIKFASRLQSGVPSRFSGSGSGTDFTLTISSLQPEDFATYYCQQSPGFPPTFGQGTKLEIKR
notes: as for B1
B4: TSLPR-012 (hamster) (antibody, V domains shown)
VH: QIQLQESGPGLVKPSQSLSLTCSVTGFSITTSGYYWTWIRQFPGKKLEWMGYIGYNSKTYYNPSLKSRISITRDTSKNQFLLHLNSVTTEDTATYYCARSLYGGYKDAFDSWGQGTLVTVSS
VL: DVVLTQTPATLSAIPGERVTMTCKASQSIGTSLHWYQHRPNETPRLLIKFASRSITGIPSRFSGSGSGTDFTLGINNLEAEDFAIYYCQQSPGFPPTFGSGTKLEINR
notes: Parent Armenian hamster monoclonal antibody; the hamster constant regions are not; also called TSLP-012; hamster antibody TSLPR-012
B5: TSLPR-012_166, CDR grafted (antibody, V domains shown)
VH: QVQLQESGPGLVKPSQTLSLTCTVSGFSITTSGYYWSWIRQHPGKGLEWIGYIGYNSKTYYSPSLKSRVTISRDTSKNQFSLKLSSVTAADTAVYYCARSLYGGYKDAFDSWGQGTLVTVSS
VL: B3 VL with Q38H, K39R, K42E, A43T, L54S, Q55I
notes: as for B1
B6: 1D6.C9 (WO2007/112146) (antibody, from another filing, V domains shown)
VH: QIQLGQSGPELKKPGETVKISCKASGYTFTTYGMSWVKQAPGKGLQWMGWINTYSGVPRYADDFKGRFAFSLETSASTAYLQIYNLKNEDTATYFCTREGFITTVVGAAGRFVYWGQGTLVTVSA
VL: DIVMTQSHKFMSTSVGDRVSITCKASQDVGTAVAWYQQKPGQSPKLLIYWASTRHTGVPDRFTGSGSGTDFTLTLNNVQSEDLADYFCQQYSTYPTFGSGTKLELKR

Residue numbers refer to the chain shown, from its start. In names and notes the source's numbering stands.

For orientation: Kd means a measure of binding affinity in units of concentration. A higher Kd goes with weaker binding. As a reminder, the IC50 is the concentration at which inhibition is half-maximal. Broadly, the EC50 is the concentration at which the effect is half-maximal.

One experiment concerns the target T1, human TSLPR (on cells) (human, UniProt Q9HC73 23-371).
T1 sequence: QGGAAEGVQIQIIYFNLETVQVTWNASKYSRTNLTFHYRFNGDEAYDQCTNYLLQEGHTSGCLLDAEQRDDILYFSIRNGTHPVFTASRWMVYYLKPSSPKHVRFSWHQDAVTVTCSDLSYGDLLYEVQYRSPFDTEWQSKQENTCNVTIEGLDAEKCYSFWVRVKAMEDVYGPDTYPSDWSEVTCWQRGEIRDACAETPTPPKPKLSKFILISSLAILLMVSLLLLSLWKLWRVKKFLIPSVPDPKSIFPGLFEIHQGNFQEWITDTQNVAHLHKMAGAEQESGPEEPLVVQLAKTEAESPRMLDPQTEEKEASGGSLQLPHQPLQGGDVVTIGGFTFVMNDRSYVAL
Description: cell-based or functional assay.
On to B1, for which the “IC50 DC assay (example 7), TARC secretion” value (shortened to “IC50 DC assay”) stood at 0.023 µg/mL and the “IC50 proliferation (example 4)” value stood at 0.025 µg/mL.

Regarding B2, the “IC50 DC assay” value is 0.042 µg/mL and the “IC50 proliferation (example 4)” value is 0.026 µg/mL.

As for B3, the “IC50 DC assay” value stood at 0.046 µg/mL and the “IC50 proliferation (example 4)” value is 0.037 µg/mL.

As for B4, the “IC50 DC assay” value came out at 0.129 µg/mL and the “IC50 proliferation (example 4)” value was 0.026 µg/mL.

Consider B5, for which the “IC50 DC assay” value is 0.086 µg/mL and the “IC50 proliferation (example 4)” value worked out at 0.034 µg/mL.

The target of the next experiment is T1, human TSLPR (on cells). The experiment can be described thus: cell-based or functional assay. This is another data set of the same source.
As for B3, the “IC50, IL-5 release in Th2 polarization assay” value is 1.62 nM; the “IC50, IL-13 release in Th2 polarization assay” value stood at 2.57 nM; the “IC50, TARC secretion by human dendritic cells stimulated with TSLP” value was determined as 2.4 nM; the “average IC50, mast cell cytokine production (IL-13, IL-5, GMCSF)” value was 0.04 to 0.06 nM.

In a further experiment the target is TSLPR-ECD (extracellular domain of TSLPR) (human) (UniProt Q9HC73). Description: SPR (Biacore 3000), antibody captured by anti-IgG, TSLPR-ECD as analyte, 25 °C, 1:1 Langmuir fit. (In general: In SPR one partner is held on a chip, and binding of the other changes the refractive index at the surface.)
In turn, B6 had an equilibrium dissociation constant (Kd) of 2.97 nM.

The next experiment addresses T2, TSLPR-ECD (extracellular domain of TSLPR) (human, UniProt Q9HC73 23-231).
T2 construct: Obtained by cleavage of a TSLPR-Fc fusion protein expressed in HEK cells; also called analyte 2
T2 sequence: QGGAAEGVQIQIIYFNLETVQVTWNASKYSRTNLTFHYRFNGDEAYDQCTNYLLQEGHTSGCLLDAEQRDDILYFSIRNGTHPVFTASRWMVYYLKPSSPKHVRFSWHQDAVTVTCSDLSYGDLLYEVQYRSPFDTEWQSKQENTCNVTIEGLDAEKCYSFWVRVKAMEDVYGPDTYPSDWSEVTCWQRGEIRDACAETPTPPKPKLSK
The experiment is described as above. As for the experimental part:
The binding properties of monoclonal anti-TSLPR antibodies and according to WO 2007/112146 were analyzed by surface plasmon resonance (SPR) technology using a Biacore 3000 instrument. The affinity was determined using an assay setup with capturing antibodies. These capturing antibodies (goat anti-human-IgG, goat anti-hamster-IgG) were immobilized on the surface of a CM5 biosensorchip using amine coupling chemistry. The capturing antibodies were injected in sodium acetate buffer, pH 5.0 at a concentration of 5 μg/ml aiming for a surface density of approx 1000 RU. Remaining reactive groups were inactivated by an injection of 1 M ethanolamine/HCl pH 8.5. Running buffer was HBS-P. The anti-TSLPR antibodies (analyte 1) were diluted in HBS-P to a concentration of 25 nM and injected at a flow rate of 5 μl/min for 3 minutes, resulting in a binding signal of 100-400RU dependent on the antibodies applied. The extracellular domain of TSLPR, TSLPR-ECD, obtained by cleavage of a TSLPR-Fc fusion protein expressed in HEK cells (analyte 2), was injected in concentrations ranging from 0-50 nM at a flow rate of 20 μl/min. The contact time (association phase) was 3 min for TSLPR followed by 5 minutes of dissociation. Regeneration solution 10 mM glycine HCl pH1.5 or 10 mM glycine HCl pH1.7 was injected twice at a flow rate of 10 μl/min for 1 min to remove any bound protein after each binding cycle. All interactions were performed at 25° C. (standard temperature). Signals were detected at a detection rate of 1 signal/second. The signals from a reference flow cell (FC1: same capturing antibody and addition of control antibody) and from blank buffer injections were subtracted and data were evaluated. All binding curves were fitted to a 1:1 Langmuir binding model. Association rate constant (ka), dissociation rate constant (kd) and the dissociation equilibrium constant (KD) were calculated accordingly.
In turn, B1 gave a Kd of 0.6 nM.

Regarding B2, the Kd turned out to be 0.5 nM.

B3 yielded a Kd of 0.87 nM.

On to B4, for which the affinity, expressed as Kd, was 0.25 nM.

In the case of B5, the affinity, expressed as Kd, was 2.45 nM.

The target in another experiment is T3, Recombinant human TSLPR-Fc (human, UniProt Q9HC73 23-231).
T3 construct: also called recombinant human soluble TSLPR-Fc fusion protein; not shown: Fc part
T3 sequence: T2 sequence
The experiment can be described thus: blocking ELISA: antibody on coated TSLPR-Fc, then TSLP + IL7Rα-Fc; TSLP binding detected. As for the experimental part:
Recombinant human TSLPR-Fc was coated to 96-well Nunc Maxisorp™ plate wells by incubating 50 μl of a 0.2 μg/ml solution of TSLPR-Fc in PBS per well for 1 h at RT. Subsequently the wells were blocked with 1% Crotein™ C in PBS (blocking buffer) for 1 h at RT, followed by two washes with wash buffer (ice-cold PBS/0.05% TWEEN® 20). 50 μl of anti-TSLPR antibody solution (antibodies and according to WO 2007/112146) were then added to the wells and incubated for 2 h at 4° C., followed by four wash steps. After addition of 50 μl of a mixture of human recombinant TSLP (12.5 ng/ml) and human recombinant IL7Rα-Fc (1 μg/ml) in blocking buffer, the plate was shaken for 1 h at 4° C., followed by further four wash steps. TSLP binding was detected by incubation with 50 μl of biotinylated anti-TSLP antibody (0.08 μg/ml in blocking buffer), followed by four washes and incubation with 50 μl of streptavidin-HRP (0.25 μg/ml in blocking buffer) per well. After another four washing steps, color was developed by incubation with 50 μl of 3,3,5,5-Tetramethylbenzidine substrate, followed by addition of 50 μl of 1 N HCl. Absorbance was read out at 450 and 620 nm.
On the technique in general: An ELISA detects its analyte on a solid surface through an enzyme-linked reagent.
For B1, the IC50 was 0.0136 µg/mL.

For B2, the IC50 was 0.0134 µg/mL.

Turning to B3, the IC50 is 0.0104 µg/mL.

Regarding B4, the IC50 was 0.0088 µg/mL.

With B6, the IC50 was found to be 0.0152 µg/mL.

Turning to B5, the IC50 was found to be 0.0122 µg/mL.

For the next experiment, the target named is T1, human TSLPR (on cells). The experiment can be described thus: cell-based or functional assay. The source holds these as a separate data set.
In turn, B6 showed an IC50 proliferation (example 4) of 0.084 µg/mL.

A further experiment has as its target T1, human TSLPR (on cells). The experiment can be described thus: FACS on BA/F3 cells stably overexpressing human TSLPR and IL-7Rα. Here is the method:
(§1) BA/F3-TSLPR/IL7Rα or Cyno-TSLPR-HEK293 cells were starved from TSLP overnight, harvested by centrifugation, washed once in PBS and re-suspended in FACS buffer (PBS/5% FCS) at 10⁶/ml. 100 μl of cell suspension were incubated in a 96-well round-bottom plate well together with 100 μl of anti-TSLPR antibody solution for 45 minutes on ice. After three washes with FACS buffer, cells were re-suspended in a solution of PE-coupled anti-hamster-F(ab)2 (Dianova, Hamburg, Germany, #127-115-160) (1:200 in FACS buffer) and incubated for 30 minutes on ice. After three further washes cells were re-suspended in 200 μl of FACS buffer and measured on a FACSCanto™ flow cytometer (10,000 cells, flow rate 3).
With B1, the EC50 is 0.0149 µg/mL.

The molecule B2 had an EC50 of 0.0157 µg/mL.

On to B3, for which a half-maximal response (EC50) required 0.0133 µg/mL.

Regarding B4, the response was half-maximal at 0.0156 µg/mL (EC50).

On to B5, for which the EC50 came out at 0.0118 µg/mL.

For another experiment, the target named is T4, Cynomolgous TSLPR (on HEK293 cells) (Cynomolgous monkey).
T4 construct: also called Cyno-TSLPR-HEK293; HEK-Cyno-TSLPR
T4 chain: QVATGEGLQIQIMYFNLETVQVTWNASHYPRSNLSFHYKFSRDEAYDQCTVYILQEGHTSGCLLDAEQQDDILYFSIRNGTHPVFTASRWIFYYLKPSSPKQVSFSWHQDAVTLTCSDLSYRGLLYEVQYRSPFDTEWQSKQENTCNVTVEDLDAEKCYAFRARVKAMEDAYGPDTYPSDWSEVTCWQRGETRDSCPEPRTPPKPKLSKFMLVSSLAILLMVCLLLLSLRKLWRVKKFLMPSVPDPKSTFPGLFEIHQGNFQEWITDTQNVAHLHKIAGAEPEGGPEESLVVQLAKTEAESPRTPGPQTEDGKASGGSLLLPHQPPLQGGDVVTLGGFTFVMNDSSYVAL
Description: FACS on HEK293 cells transiently transfected with Cynomolgous TSLPR. As for the experimental part: as §1
Take B1: the EC50 was found to be 0.0103 µg/mL.

In turn, B2 displayed an EC50 of 0.0108 µg/mL.

B3 came in with an EC50 of 0.0097 µg/mL.

The molecule B4 returned an EC50 of 0.0118 µg/mL.

On to B5, for which a half-maximal effect (EC50) was put at 0.0086 µg/mL.

These data come from patent US20120020988A1 (Hoffmann-La Roche, published 2012).
